Laboratory results reported in the supplement of paper PMC6757056.
± gives the standard deviation of the averaged measurements.

B1: library; a variant is named by its letters at N, in order (parent)
chain: GCUGUCACCGGUGUAUUACCCUAGUGGUCGACCGGUCUGAUGAGUCUNNNNNNAGACGAAACAGC

Legend:
hypoxanthine [1] = variants of: B1; test: normalized RNA/DNA level with ligand (relative to sTRSVctl = 100) (log10 (% of sTRSVctl)); ligand: hypoxanthine (xanthine aptamer); higher = less ribozyme self-cleavage, higher mRNA level; details: ligand concentration (+) RNA-Seq: 5 mM, HEK293T, reporter: mCherry (pCS4076), ligand present: yes
Method in brief: (§1)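 Library plasmids carrying ribozyme switches linked to mCherry, or to eGFP in some ligand experiments, were transfected into HEK293T at 4 µg per 6-well well, with any ligand added 1 h earlier. Seventy-two hours on, total RNA was extracted with EDTA and reverse-transcribed, amplified, barcoded and sequenced. RNA level was RNA over DNA reads normalized to a spiked-in non-cleaving sequence or to the top sequences, then scaled and log-transformed. The top set was 25 sequences, the transform was ×100 and log10, and sequences needed ≥100 DNA reads.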

hypoxanthine [2] = variants of: B1; test: normalized RNA/DNA level without ligand (relative to sTRSVctl = 100) (log10 (% of sTRSVctl)); ligand: hypoxanthine (xanthine aptamer); higher = less ribozyme self-cleavage, higher mRNA level; details: HEK293T, reporter: mCherry (pCS4076), ligand present: no
Method in brief: as §1

hypoxanthine [3] = variants of: B1; test: FACS-Seq fitted mean relative fluorescence mCherry/BFP without ligand (log10 relative fluorescence); ligand: hypoxanthine (xanthine aptamer); higher = higher reporter protein expression; details: HEK293T, ligand present: no
Method in brief: (§2)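 Sorting into 6 bins by mCherry/BFP followed 48 h of incubation with or without ligand. The cells were enriched HEK293T libraries lentivirally bearing an mCherry reporter with the ribozyme switch and an EF1α-BFP marker, and bin genomic DNA was PCR-amplified, barcoded and sequenced on MiSeq. Fluorescence is the fitted normal mean of the bin counts. Means were fitted on log10(mCherry/BFP), scaled to five spiked-in control ribozymes.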

hypoxanthine [4] = variants of: B1; test: FACS-Seq fitted mean relative fluorescence mCherry/BFP with ligand (log10 relative fluorescence); ligand: hypoxanthine (xanthine aptamer); ligand concentration (+) FACS-Seq: 5 mM; higher = higher reporter protein expression; details: HEK293T, ligand present: yes
Method in brief: as §2

Row | Variant | normalized RNA/DNA level with ligand (log10) (hypoxanthine [1]) | normalized RNA/DNA level without ligand (log10) (hypoxanthine [2]) | FACS-Seq fitted mean (log10) (hypoxanthine [3]) | FACS-Seq fitted mean (log10) (hypoxanthine [4])
1 | GCUGUCACCGGUGUAUUACCCUAGUGGUCGACCGGUCUGAUGAGUCUAAAAUCAGACGAAACAGC [AAAAUC] | 1.94 ± 0.023 | 1.92 ± 0.041 | – | –
2 | GCUGUCACCGGUGUAUUACCCUAGUGGUCGACCGGUCUGAUGAGUCUAAAAUAAGACGAAACAGC [AAAAUA] | 1.909 ± 0.018 | 1.777 ± 0.015 | – | –
3 | GCUGUCACCGGUGUAUUACCCUAGUGGUCGACCGGUCUGAUGAGUCUUAAAAGAGACGAAACAGC [UAAAAG] | 1.87 ± 0.025 | 1.627 ± 0.011 | – | –
4 | GCUGUCACCGGUGUAUUACCCUAGUGGUCGACCGGUCUGAUGAGUCUAUUUGUAGACGAAACAGC [AUUUGU] | 1.923 ± 0.01 | 1.638 ± 0.013 | 0.6123 ± 2.1e-06 | 0.723 ± 0.041
5 | GCUGUCACCGGUGUAUUACCCUAGUGGUCGACCGGUCUGAUGAGUCUGUUUGGAGACGAAACAGC [GUUUGG] | 1.92 ± 0.03 | 1.57 ± 0.06 | 0.231 ± 0.049 | 0.62263 ± 0.00024
6 | GCUGUCACCGGUGUAUUACCCUAGUGGUCGACCGGUCUGAUGAGUCUCAACAAAGACGAAACAGC [CAACAA] | 1.88 ± 0.03 | 1.701 ± 0.015 | – | –
7 | GCUGUCACCGGUGUAUUACCCUAGUGGUCGACCGGUCUGAUGAGUCUAAAACCAGACGAAACAGC [AAAACC] | 1.93 ± 0.033 | 1.876 ± 0.018 | – | –
8 | GCUGUCACCGGUGUAUUACCCUAGUGGUCGACCGGUCUGAUGAGUCUGAAAUUAGACGAAACAGC [GAAAUU] | 1.95 ± 0.046 | 1.87 ± 0.039 | – | –
9 | GCUGUCACCGGUGUAUUACCCUAGUGGUCGACCGGUCUGAUGAGUCUGAAAUCAGACGAAACAGC [GAAAUC] | 1.97 ± 0.022 | 1.88 ± 0.078 | – | –
10 | GCUGUCACCGGUGUAUUACCCUAGUGGUCGACCGGUCUGAUGAGUCUAAACACAGACGAAACAGC [AAACAC] | 1.885 ± 0.011 | 1.712 ± 0.0056 | – | –
11 | GCUGUCACCGGUGUAUUACCCUAGUGGUCGACCGGUCUGAUGAGUCUAUUUUUAGACGAAACAGC [AUUUUU] | 1.93 ± 0.054 | 1.88 ± 0.032 | 0.433 ± 0.019 | 0.378 ± 0.044
12 | GCUGUCACCGGUGUAUUACCCUAGUGGUCGACCGGUCUGAUGAGUCUAUUUUGAGACGAAACAGC [AUUUUG] | 1.933 ± 0.0027 | 1.59 ± 0.083 | 0.224 ± 0.041 | 0.466 ± 0.012
13 | GCUGUCACCGGUGUAUUACCCUAGUGGUCGACCGGUCUGAUGAGUCUCAAAUGAGACGAAACAGC [CAAAUG] | 1.913 ± 0.011 | 1.82 ± 0.041 | – | –
14 | GCUGUCACCGGUGUAUUACCCUAGUGGUCGACCGGUCUGAUGAGUCUCAAAUUAGACGAAACAGC [CAAAUU] | 1.95 ± 0.029 | 1.806 ± 0.014 | – | –
15 | GCUGUCACCGGUGUAUUACCCUAGUGGUCGACCGGUCUGAUGAGUCUUAAAGAAGACGAAACAGC [UAAAGA] | 1.891 ± 0.0053 | 1.57 ± 0.021 | – | –
16 | GCUGUCACCGGUGUAUUACCCUAGUGGUCGACCGGUCUGAUGAGUCUCAAAAUAGACGAAACAGC [CAAAAU] | 1.88 ± 0.035 | 1.763 ± 0.0036 | – | –
17 | GCUGUCACCGGUGUAUUACCCUAGUGGUCGACCGGUCUGAUGAGUCUAAAAACAGACGAAACAGC [AAAAAC] | 1.894 ± 0.015 | 1.8 ± 0.021 | – | –
